Consider 18 molecules from PMC10806991, “Substrate promiscuity of Dicer toward precursors of the let-7 family and their 3′-end modifications”.

Series [1] deals with ciDicer (catalytically inactive human Dicer) D1320A;D1709A (Homo sapiens) (UniProt Q9UPY3). The series is described as follows: EMSA. The following applies: 5'-monophosphate; 3'-OH; EMSA: 50 mM Tris pH 7.6, 50 mM NaCl, 10% glycerol, 0.05% NP-40, 2 mM DTT, 4 °C, 30 min, 2 pM 32P-RNA; 4-15% native PAGE in …; RNA heated 95 °C and sn. A general note: Mobility shift assays separate free from complexed probe on a gel.
Chain of ciDicer (catalytically inactive human Dicer) D1320A;D1709A (Homo sapiens) (Q9UPY3 whole entry D1320A/D1709A): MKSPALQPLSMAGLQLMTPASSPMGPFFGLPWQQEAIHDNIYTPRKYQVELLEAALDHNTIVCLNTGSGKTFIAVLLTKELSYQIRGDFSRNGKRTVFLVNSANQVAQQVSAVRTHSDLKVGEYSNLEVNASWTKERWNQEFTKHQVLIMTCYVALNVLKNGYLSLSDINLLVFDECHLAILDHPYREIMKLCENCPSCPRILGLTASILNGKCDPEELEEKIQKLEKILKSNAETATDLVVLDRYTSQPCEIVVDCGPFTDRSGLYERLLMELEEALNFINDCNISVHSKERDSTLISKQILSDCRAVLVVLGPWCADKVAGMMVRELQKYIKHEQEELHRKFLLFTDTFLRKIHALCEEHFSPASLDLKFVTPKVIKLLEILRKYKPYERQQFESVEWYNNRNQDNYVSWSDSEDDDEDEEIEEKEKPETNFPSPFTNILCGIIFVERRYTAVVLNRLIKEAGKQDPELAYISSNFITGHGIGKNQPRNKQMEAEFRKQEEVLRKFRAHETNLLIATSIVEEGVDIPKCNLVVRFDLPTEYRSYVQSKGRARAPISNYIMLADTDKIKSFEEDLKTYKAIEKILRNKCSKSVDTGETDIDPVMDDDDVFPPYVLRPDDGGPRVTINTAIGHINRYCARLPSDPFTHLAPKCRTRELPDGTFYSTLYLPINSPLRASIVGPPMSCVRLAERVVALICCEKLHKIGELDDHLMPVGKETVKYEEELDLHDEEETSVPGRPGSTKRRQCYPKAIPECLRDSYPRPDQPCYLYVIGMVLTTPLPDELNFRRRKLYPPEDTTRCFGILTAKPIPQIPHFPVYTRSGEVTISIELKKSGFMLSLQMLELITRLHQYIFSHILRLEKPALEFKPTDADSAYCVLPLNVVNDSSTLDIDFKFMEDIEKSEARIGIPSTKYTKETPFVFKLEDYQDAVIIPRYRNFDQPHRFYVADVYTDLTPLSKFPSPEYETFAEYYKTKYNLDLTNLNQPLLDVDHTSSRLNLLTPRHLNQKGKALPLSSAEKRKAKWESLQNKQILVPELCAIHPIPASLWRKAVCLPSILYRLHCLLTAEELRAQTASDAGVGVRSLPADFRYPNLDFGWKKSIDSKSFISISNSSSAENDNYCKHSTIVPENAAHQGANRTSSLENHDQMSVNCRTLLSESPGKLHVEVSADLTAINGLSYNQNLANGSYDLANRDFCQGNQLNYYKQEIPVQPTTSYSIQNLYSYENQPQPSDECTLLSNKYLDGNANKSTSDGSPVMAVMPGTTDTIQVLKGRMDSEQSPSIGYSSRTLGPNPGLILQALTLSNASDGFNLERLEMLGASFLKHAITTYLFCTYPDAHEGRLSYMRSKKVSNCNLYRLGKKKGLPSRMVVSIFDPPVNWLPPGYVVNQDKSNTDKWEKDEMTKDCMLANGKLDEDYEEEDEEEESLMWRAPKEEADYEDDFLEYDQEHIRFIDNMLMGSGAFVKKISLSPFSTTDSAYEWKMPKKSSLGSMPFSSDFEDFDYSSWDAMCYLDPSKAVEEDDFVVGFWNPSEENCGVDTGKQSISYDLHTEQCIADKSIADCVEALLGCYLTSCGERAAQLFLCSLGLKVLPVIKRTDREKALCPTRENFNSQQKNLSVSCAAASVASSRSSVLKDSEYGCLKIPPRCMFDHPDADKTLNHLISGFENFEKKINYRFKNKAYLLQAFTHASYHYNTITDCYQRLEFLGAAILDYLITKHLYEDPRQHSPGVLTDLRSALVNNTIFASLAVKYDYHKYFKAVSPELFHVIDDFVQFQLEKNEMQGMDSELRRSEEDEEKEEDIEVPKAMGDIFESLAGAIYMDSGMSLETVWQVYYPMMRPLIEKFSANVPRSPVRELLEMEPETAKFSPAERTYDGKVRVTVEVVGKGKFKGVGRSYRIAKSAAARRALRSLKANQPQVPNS

Series [2] deals with T1, ciDicer (catalytically inactive human Dicer) (Homo sapiens, UniProt Q9UPY3 1-1922, D1320A;D1709A). The series is described as follows: EMSA; EMSA: 50 mM Tris pH 7.6, 50 mM NaCl, 10% glycerol, 0.05% NP-40, 2 mM DTT, 4 °C, 30 min, 2 pM 32P-RNA; 4-15% native PAGE in Tris-glycine; RNA heated 95 °C and snap-cooled; no Mg2+ added to DB buffer. The following applies: protein: recombinant, label: 5'-32P, hairpin.
T1 sequence (Q9UPY3 whole entry D1320A/D1709A): as above

For series [3], the target named is T1, ciDicer (catalytically inactive human …). The series is described as follows: EMSA; range over five mono-U RNAs; individual value only in figure; EMSA: 50 mM Tris pH 7.6, 50 mM NaCl, 10% glycerol, 0.05% NP-40, 2 mM DTT, 4 °C, 30 min, 2 pM 32P-RNA; 4-15% native PAGE in Tris-glycine; RNA heated 95 °C and snap-cooled; no Mg2+ added to DB buffer. The note with it: protein: recombinant; label: 5'-32P; hairpin, 2-nt 3' overhang.

For the molecule pre-let-7f-1 (7f1), in series [1], the Kd (as a rule, the concentration at which binding is half-saturated) came out at 10 nM.

B1: pre-let-7f-2 (7f2) (structured_RNA)
RNA: UGAGGUAGUAGAUUGUAUAGUUUUAGGGUCAUACCCCAUCUUGGAGAUAACUAUACAGUCUACUGUCUUUC
modifications: 5'-monophosphate; 3'-OH
On to B1, for which, in series [2] (1-nt 3' overhang (Group II)), the Kd turned out to be 17 ± 4 nM.

B2: pre-let-7a-1 mono-U (structured_RNA)
RNA: UGAGGUAGUAGGUUGUAUAGUUUUAGGGUCACACCCACCACUGGGAGAUAACUAUACAAUCUACUGUCUUUCU
modifications: 5'-monophosphate; 3'-OH; one extra 3' U
For B2, the Kd in series [3] is roughly 19 nM.

B3: pre-miR-98 mono-U (structured_RNA)
RNA: UGAGGUAGUAAGUUGUAUUGUUGUGGGGUAGGGAUAUUAGGCCCCAAUUAGAAGAUAACUAUACAACUUACUACUUUCCU
modifications: 5'-monophosphate; 3'-OH; one extra 3' U
As for B3, in series [3], the Kd was roughly 19 nM.

B4: pre-let-7a-3 (7a3) (structured_RNA)
RNA: UGAGGUAGUAGGUUGUAUAGUUUGGGGCUCUGCCCUGCUAUGGGAUAACUAUACAAUCUACUGUCUUUC
modifications: 5'-monophosphate; 3'-OH
On to B4, for which the Kd in series [2] (1-nt 3' overhang (Group II)) was determined as 16 ± 5 nM.

B5: pre-let-7b mono-U (structured_RNA)
RNA: UGAGGUAGUAGGUUGUGUGGUUUCAGGGCAGUGAUGUUGCCCCUCGGAAGAUAACUAUACAACCUACUGCCUUCCU
modifications: 5'-monophosphate; 3'-OH; one extra 3' U
Consider B5, for which the equilibrium dissociation constant (Kd) in series [3] was roughly 19 nM.

B6: pre-let-7d (7d) (structured_RNA)
RNA: AGAGGUAGUAGGUUGCAUAGUUUUAGGGCAGGGAUUUUGCCCACAAGGAGGUAACUAUACGACCUGCUGCCUUUC
modifications: 5'-monophosphate; 3'-OH
Consider B6, for which, in series [2] (1-nt 3' overhang (Group II)), the Kd turned out to be 16 ± 3 nM.

B7: pre-let-7i (7i) (structured_RNA)
RNA: UGAGGUAGUAGUUUGUGCUGUUGGUCGGGUUGUGACAUUGCCCGCUGUGGAGAUAACUGCGCAAGCUACUGCCUUGC
modifications: 5'-monophosphate; 3'-OH
Turning to B7, the Kd in series [2] (1-nt 3' overhang (Group II)) is 17 ± 5 nM.

B8: pre-let-7a-2 (7a2) (structured_RNA)
RNA: UGAGGUAGUAGGUUGUAUAGUUUAGAAUUACAUCAAGGGAGAUAACUGUACAGCCUCCUAGCUUUCC
modifications: 5'-monophosphate; 3'-OH
For B8, the Kd in series [2] (2-nt 3' overhang (Group I)) came out at 12 ± 5 nM.

B9: pre-let-7c (7c) (structured_RNA)
RNA: UGAGGUAGUAGGUUGUAUGGUUUAGAGUUACACCCUGGGAGUUAACUGUACAACCUUCUAGCUUUCC
modifications: 5'-monophosphate; 3'-OH
Regarding B9, the Kd in series [2] (2-nt 3' overhang (Group I)) came out at 13 ± 4 nM.

B10: pre-let-7d mono-U (structured_RNA)
RNA: AGAGGUAGUAGGUUGCAUAGUUUUAGGGCAGGGAUUUUGCCCACAAGGAGGUAACUAUACGACCUGCUGCCUUUCU
modifications: 5'-monophosphate; 3'-OH; one extra 3' U
As to B10, the Kd in series [3] was roughly 19 nM.

B11: pre-let-7a-1 (7a1) (structured_RNA)
RNA: UGAGGUAGUAGGUUGUAUAGUUUUAGGGUCACACCCACCACUGGGAGAUAACUAUACAAUCUACUGUCUUUC
modifications: 5'-monophosphate; 3'-OH
As to B11, the Kd in series [2] (1-nt 3' overhang (Group II)) came to 14 ± 3 nM.

B12: pre-let-7b (7b) (structured_RNA)
RNA: UGAGGUAGUAGGUUGUGUGGUUUCAGGGCAGUGAUGUUGCCCCUCGGAAGAUAACUAUACAACCUACUGCCUUCC
modifications: 5'-monophosphate; 3'-OH
Regarding B12, the Kd in series [2] (1-nt 3' overhang (Group II)) amounted to 13 ± 1 nM.

B13: pre-let-7e (7e) (structured_RNA)
RNA: UGAGGUAGGAGGUUGUAUAGUUGAGGAGGACACCCAAGGAGAUCACUAUACGGCCUCCUAGCUUUCC
modifications: 5'-monophosphate; 3'-OH
In the case of B13, the dissociation constant (Kd) in series [2] (2-nt 3' overhang (Group I)) came to 12 ± 2 nM.

B14: pre-let-7g (7g) (structured_RNA)
RNA: UGAGGUAGUAGUUUGUACAGUUUGAGGGUCUAUGAUACCACCCGGUACAGGAGAUAACUGUACAGGCCACUGCCUUGC
modifications: 5'-monophosphate; 3'-OH
Regarding B14, the Kd in series [2] (1-nt 3' overhang (Group II)) worked out at 12 ± 2 nM.

B15: pre-let-7g mono-U (structured_RNA)
RNA: UGAGGUAGUAGUUUGUACAGUUUGAGGGUCUAUGAUACCACCCGGUACAGGAGAUAACUGUACAGGCCACUGCCUUGCU
modifications: 5'-monophosphate; 3'-OH; one extra 3' U
On to B15, for which the Kd in series [3] is roughly 19 nM.

B16: pre-miR-98 (m98) (structured_RNA)
RNA: UGAGGUAGUAAGUUGUAUUGUUGUGGGGUAGGGAUAUUAGGCCCCAAUUAGAAGAUAACUAUACAACUUACUACUUUCC
modifications: 5'-monophosphate; 3'-OH
On to B16, for which the Kd in series [2] (1-nt 3' overhang (Group II)) amounted to 12 ± 7 nM.

B17: pre-miR-202 (m202) (structured_RNA)
RNA: UUCCUAUGCAUAUACUUCUUUGAGGAUCUGGCCUAAAGAGGUAUAGGGCAUGGGAAAA
modifications: 5'-monophosphate; 3'-OH
B17: the Kd in series [2] (14-nt apical loop, 2-nt 3' overhang (Group I)) came to 7 ± 2 nM.
